What was measured:
[1] = target: TOPBP1 BRCT0,1,2 (UniProt Q92547); assay: fluorescence polarisation titration; conditions: reference: pT202 peptide, untreated; sites T202
[2] = target: RAD9 pS387 (Homo sapiens) (UniProt Q99638); conditions: cited from earlier work
[3] = target: RHNO1 pT202 fluorescein-labelled phosphopeptide (human); assay: fluorescence polarisation; fluorescein-labelled peptide at 200 nM, increasing concentrations of recombinant protein; room temperature; 25 mM HEPES pH 7.5, 150 mM NaCl, 1 mM EDTA, 0.25 mM TCEP, 0.02% Tween-20; one site-specific binding model

Chain of TOPBP1 BRCT1 (Q92547 98-192): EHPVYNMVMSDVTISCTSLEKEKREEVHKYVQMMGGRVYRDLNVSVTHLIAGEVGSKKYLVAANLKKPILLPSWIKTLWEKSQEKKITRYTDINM
Chain of RAD9 pS387 (Homo sapiens) (Q99638 whole entry): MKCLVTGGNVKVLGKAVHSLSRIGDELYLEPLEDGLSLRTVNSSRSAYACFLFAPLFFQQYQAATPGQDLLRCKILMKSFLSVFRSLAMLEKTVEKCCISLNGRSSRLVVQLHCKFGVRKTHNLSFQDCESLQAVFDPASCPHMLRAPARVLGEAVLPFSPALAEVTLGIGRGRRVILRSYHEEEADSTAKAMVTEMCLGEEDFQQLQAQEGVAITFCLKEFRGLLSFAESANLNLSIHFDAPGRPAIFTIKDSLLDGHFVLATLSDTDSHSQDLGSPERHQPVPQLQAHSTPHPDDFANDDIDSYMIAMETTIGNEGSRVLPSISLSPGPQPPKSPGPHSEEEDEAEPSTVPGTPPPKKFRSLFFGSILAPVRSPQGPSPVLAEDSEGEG

RHNO1 (from UniProt Q9BSD3) λ-phosphatase-dephosphorylated peptide
binding against the reference [1]: lost

TOPBP1 BRCT1 (from UniProt Q92547)
Kd [2]: 2100 nM

TOPBP1-BRCT0,1,2 segment, wild type (recombinant, fluorescence polarisation) (domain or fragment)
fold tighter binding than RAD9-pS387 [3]: 10 fold

— article PMC6175577, “BRCT domains of the DNA damage checkpoint proteins TOPBP1/Rad4 display distinct specificities for phosphopeptide ligands” (eLife, 2018)
